Results as given in paper PMC8516079.

Target: TGF-β receptors on MFB-F11 cells
Conditions: scale: fold less potent than HEK293T-expressed TGM1

Substance: algal-expressed TGM1 (Heligmosomoides polygyrus TGF-β mimic, mature 5-domain, FLAG-tagged) (ligand)
- MFB-F11 Smad-responsive reporter cells, secreted alkaline phosphatase (405 nm), log dilutions starting at 100 ng/mL, 24 h; potency against HEK293T-expressed TGM1: 10
